Results from PMC3564804.
Read-outs that look alike come from different tables or passages of the source.

Columns and labels:
[1] = target: DS-PrPRes (Gdn-HCl treated PrPRes) (UniProt P04156)
PrPRes, native state = PrPRes, native state (UniProt P04156)

CTTACGGTGGGGCAATT [Apt1] was tested, and the binding signal (fluorescence ratio) ([1]; 5'-NH2) was 4.74 and the binding signal (fluorescence ratio) (PrPRes, native state; 5'-NH2) was 1.69.
“GTTTTGTTACAGTTCGTTTCTTTTCCCTGTCTTGTTTTGTTGTCT [Apt2]” showed a binding signal (fluorescence ratio) ([1]; 5'-biotin) of 4.74 and a binding signal (fluorescence ratio) (PrPRes, native state; 5'-biotin) of 1.69.
